In US12258605B2, “Alkane oxidation by modified hydroxylases” (The California Institute of Technology, priority 2005, dated 2025):

B1: 35-E11: P450 BM-3 variant, SEQ ID NO:7: 53-5H substitutions plus E464G and I710T (protein)
chain: TIKEMPQPKTFGELKNLPLLNTDKPVQALMKIADELGEIFKFEAPGCVTRYLSSQRLIKEACDESRFDKNLSQALKFFRDFSGDGLFTSWTHEINWKKAHNILLPSFSQQAMKGYHAMMVDIAVQLVQKWERLNADEHIEVSEDMTRLTLDTIGLCGFNYRFNSFYRDQPHPFIISMVRALDEVMNKLQRANPDDPAYDENKRQCQEDIKVMNDLVDKIIADRKARGEQSDDLLTQMLNGKDPETGEPLDDGNISYQIITFLIAGHETTSGLLSFALYFLVKNPHVLQKVVEEAARVLVDPVPSYKQVKQLKYVGMVLNEALRLWPTFPAFSLYAKEDTVLGGEYPLEKGDEVMVLIPQLHRDKTIWGDDVEEFRPERFENPSAIPQHAFKPFGNGQRACIGQQFALHEATLVLGMMLKHFDFEDHTNYELDIKETLTLKPEGFVVKAKSKKIPLGGIPSPSTGQSAKKVRKKAENAHNTPLLVLYGSNMGTAEGTARDLADIAMSKGFAPQVATLDSHAGNLPREGAVLIVTASYNGHPPDNAKQFVDWLDQASADEVKGVRYSVFGCGDKNWATTYQKVPAFIDETLAAKGAENIADRGEADASDDFEGTYEEWREHMWSDVAAYFNLDIENSEDNKSTLSLQFVDSAADMPLAKMHGAFSTNVVASKELQQPGSARSTRHLEIELPKEASYQEGDHLGVIPRNYEGTVNRVTARFGLDASQQIRLEAEEEKLAHLPLAKTVSVEELLQYVELQDPVTRTQLRAMAAKTVCPPHKVELEALLEKQAYKEQVLAKRLTMLELLEKYPACEMKFSEFIALLPSIRPRYYSISSSPRVDEKQASITVSVVSGEAWSGYGEYKGIASNYLAELQEGDTITCFISTPQSEFTLPKDPETPLIMVGPGTGVAPFRGFVQARKQLKEQGQSLGEAHLYFGCRSPHEDYLYQEELENAQSEGIITLHTAFSRMPNQPKTYVQHVMEQDGKKLIELLDQGAHFYICGDGSQMAPAVEATLMKSYADVHQVSEADARLWLQQLEEKGRYAKDVWAG
modifications: mutant P450 35-E11 protein sequence
B2: Wild-type BM-3: wild-type cytochrome P450 BM-3 from Bacillus megaterium, SEQ ID NO:1 (protein, listed as Bacillus megaterium)
chain: TIKEMPQPKTFGELKNLPLLNTDKPVQALMKIADELGEIFKFEAPGRVTRYLSSQRLIKEACDESRFDKNLSQALKFVRDFAGDGLFTSWTHEKNWKKAHNILLPSFSQQAMKGYHAMMVDIAVQLVQKWERLNADEHIEVPEDMTRLTLDTIGLCGFNYRFNSFYRDQPHPFITSMVRALDEAMNKLQRANPDDPAYDENKRQFQEDIKVMNDLVDKIIADRKASGEQSDDLLTHMLNGKDPETGEPLDDENIRYQIITFLIAGHETTSGLLSFALYFLVKNPHVLQKAAEEAARVLVDPVPSYKQVKQLKYVGMVLNEALRLWPTAPAFSLYAKEDTVLGGEYPLEKGDELMVLIPQLHRDKTIWGDDVEEFRPERFENPSAIPQHAFKPFGNGQRACIGQQFALHEATLVLGMMLKHFDFEDHTNYELDIKETLTLKPEGFVVKAKSKKIPLGGIPSPSTEQSAKKVRKKAENAHNTPLLVLYGSNMGTAEGTARDLADIAMSKGFAPQVATLDSHAGNLPREGAVLIVTASYNGHPPDNAKQFVDWLDQASADEVKGVRYSVFGCGDKNWATTYQKVPAFIDETLAAKGAENIADRGEADASDDFEGTYEEWREHMWSDVAAYFNLDIENSEDNKSTLSLQFVDSAADMPLAKMHGAFSTNVVASKELQQPGSARSTRHLEIELPKEASYQEGDHLGVIPRNYEGIVNRVTARFGLDASQQIRLEAEEEKLAHLPLAKTVSVEELLQYVELQDPVTRTQLRAMAAKTVCPPHKVELEALLEKQAYKEQVLAKRLTMLELLEKYPACEMKFSEFIALLPSIRPRYYSISSSPRVDEKQASITVSVVSGEAWSGYGEYKGIASNYLAELQEGDTITCFISTPQSEFTLPKDPETPLIMVGPGTGVAPFRGFVQARKQLKEQGQSLGEAHLYFGCRSPHEDYLYQEELENAQSEGIITLHTAFSRMPNQPKTYVQHVMEQDGKKLIELLDQGAHFYICGDGSQMAPAVEATLMKSYADVHQVSEADARLWLQQLEEKGRYAKDVWAG

Experiments:
Format in all cases: biochemical
[1] = Kinetic constants for n-alkanes: octane
Method: Rate measurements. Initial rates of product formation were determined at 25° C. in 100 mM KPi pH 8.0 buffer using purified protein (100 nM) and a substrate concentration of 1.6 mM. In a 5 mL-vial, 20 μL of alkane solution (in ethanol) were dissolved in 400 μL KPi buffer, to which 500 μL enzyme solution at 100-200 nM was added. Reaction was initiated by adding 100 μL of 5 mM NADPH solution, followed by stirring at 300 rpm for 1 minute, and quenched by adding 200 μL chloroform and stirring at 800 rpm for 10 sec. Solutions were transferred to an Eppendorf tube, to which internal standard (10 μL 25 mM 1-bromohexane in ethanol) was added. Tubes were vortexed for 10 sec and centrifuged for 30 sec at 10,000 g. Organic phase was removed and analyzed by GC. For propane, reactions were carried out in a 5 mL-scale using 100-400 nM purified enzyme, propane-saturated buffer (propane concentration≈1.6 mM) and a final NADPH concentration of 500 μM. Reactions were stopped by addition of 200 μL H2SO4 conc. and analyzed by derivatization to alkyl nitrites followed by GC-ECD analysis as described below.
(§1) Products from alkane reactions were identified and quantified by gas chromatography using authentic standards and calibration curves with internal standards. For the reactions with alkanes from pentane to decane, GC analyses were carried out using a Shimadzu GC-17A gas chromatograph, Agilent HP5 column (30 m×0.32 mm×0.1 μm film), 1 μL injection, FID detector, and the following separation program: 250° C. inlet, 250° C. detector, 50° C. oven for 3 min, 5° C./min gradient to 100° C., 25° C./min gradient to 230° C., and 230° C. for 3 min. For butane and propane (TTN) reactions, GC analyses were carried out using a Hewlett-Packard 5890 Series II Plus gas chromatograph, Supelco SPB-1 column (60 m×0.52 mm×0.5 μm film), 0.5 μL injection, FID detector, and the following separation program: 250° C. inlet, 275° C. detector, 80° C. oven for 2 min, 10° C./min gradient to 110° C., 25° C./min gradient to 275° C., and 275° C. for 2.5 min. For ethane and propane (rate) reactions, analysis of reaction mixtures was carried out by derivatization to alkyl nitrites followed by GC-ECD analysis. For laurate, reaction product analysis was carried out by derivatization with N-methyl-N-trimethylsilylheptafluorobutyramide followed by extraction with hexane. Organic solutions were analyzed by FID-GC.
To further investigate the evolution of substrate specificity, kinetic constants for the C5 to C8 alkanes were determined from Michaelis-Menten plots (Table 19). The preference of 35E11 and its evolutionary predecessors for medium-chain alkanes is indicated by their high C8/C5 specificities ((kcat/Km)8/(kcat/Km)5˜100), where Km appears to be the major contributing factor. C8/C5 specificity decreases to ˜5 in the immediate precursors of P450PMO and then switches altogether to the smaller alkane, becoming 0.4 in P450PMO. In P450PMO, catalytic efficiency is highest on propane and decreases along the alkane series, driven by decreasing kcat.

[2] = Reactions on alkanes, total turnovers (Table 18): ethane; settings: ethane (2 C atoms); for % rel. act.: TTN normalized to the highest value of the variant's series; for TTN: total turnovers, standardized reaction conditions
Method: (§2) Reactions on alkanes. Reactions with alkanes from pentane to decane were carried out at 3 mL-scale using 100 mM KPi pH 8.0 buffer containing 2% ethanol (to allow alkane solubilization) and purified protein. 2.5 mL KPi buffer were added with 60 μL of 90 mM alkane solution in ethanol (final conc.=1.8 mM), 150 μL enzyme solution at 1 μM (final conc.=50 nM), and 300 μL NADPH regeneration solution (100 units/mL isocitrate dehydrogenase, 70 mg/mL isocitrate, 1.5 mg/ml NADP^+). Vials were sealed and stirred for 24 hours at 4° C. 1 mL-aliquot of the reaction was removed, added with 10 μl internal standard (25 mM 1-bromohexane in ethanol), and extracted with 200 μl chloroform (30 sec vortexing, 1 min centrifugation at 10000 g). The organic phase was removed and analyzed by gas chromatography. Reactions with ethane, propane, and butane were carried out as described for longer alkanes with the only difference that alkane-saturated KPi buffer was used. Propane reactions with variants from HL5 and L9 libraries were performed on 1 mL-scale reaction using 20 nM enzyme to reduce oxygen limitation. Propane and butane reactions were analyzed by direct injection of reaction solution on the GC using 1-pentanol as internal standard. Ethane reaction products were functionalized (see below) and analyzed by GC using 1-butanol as internal standard. All measurements were performed in triplicate.
as §1
(§3) TTNs for each variant-substrate pair were determined using standardized reaction conditions (identical enzyme and substrate concentration, incubation time, cofactor regeneration system) (Table 18). TTN values were used to assess performance because TTN is a cumulative measure of both catalytic and coupling efficiency and because mutants were selected based on improvement in this property. To facilitate comparison among the variants, TTNs were normalized to the highest value in the series (MTN=Maximal Turnover Number) and plotted for the increasing-sized substrates (FIG. 38). A gradual shift of the enzyme's substrate preference during laboratory evolution is evident from these profiles. The marginal activity of wild-type BM3 on these substrates (MTN=150) is restricted to the long-chain alkanes, where it is a promiscuous function of BM3's high C12-C20 fatty acid hydroxylase activity. In the first evolutionary intermediates, substrate preference centers on medium-chain alkanes […], reflecting their selection for activity on octane. In 35E11, selected for activity on propane, preference still centers on C6-C8 alkanes but now extends towards the shorter ones, including propane. Propane activity becomes prevalent with the transition from variant ETS8 to 19A12. […]

[3] = Reactions on alkanes, total turnovers (Table 18): butane; settings: butane (4 C atoms); for TTN: total turnovers, standardized reaction conditions
Method: as §2, §1, §3

[4] = Reactions on alkanes, total turnovers (Table 18): pentane; settings: pentane (5 C atoms); for % rel. act.: TTN normalized to the highest value of the variant's series; for TTN: total turnovers, standardized reaction conditions
Method: as §2, §1, §3

[5] = Reactions on alkanes, total turnovers (Table 18): hexane; settings: hexane (6 C atoms); for % rel. act.: TTN normalized to the highest value of the variant's series; for TTN: total turnovers, standardized reaction conditions
Method: as §2, §1, §3

[6] = Reactions on alkanes, total turnovers (Table 18): nonane; settings: nonane (9 C atoms); for % rel. act.: TTN normalized to the highest value of the variant's series; for TTN: total turnovers, standardized reaction conditions
Method: as §2, §1, §3

Row | Molecule | Km [1] | kcat [1] | % rel. act. [2] | TTN [2] | TTN [3] | % rel. act. [4] | TTN [4] | % rel. act. [5] | TTN [5] | % rel. act. [6] | TTN [6] | % rel. act. ([3]; TTN normalized to the highest value of the variant's series)
1 | B1 | 85 ± 25 µM | 6.5 ± 1.58 s⁻¹ | 3.5% | 220 ± 30 | 5150 ± 104 | 75.6% | 4800 ± 174 | 100.0% | 6350 ± 384 | 52.6% | 3350 ± 133 | –
2 | B2 | > 5000 µM | <0.083 s⁻¹ | 0.0% | 0 | 0 | 0.0% | 0 | 6.3% | 10 ± 4 | 68.8% | 110 ± 10 | 0.0%
